How the values were obtained:
[1] = test system: MAPRE3 ZFN of pair 31/32 (second) (synthetic); assay: cell_activity; settings: Cel-1 efficiency of ZFN pair 31/32; no productive tag integration
[2] = test system: MAPRE3 ZFN of pair 31/32 (first) (synthetic); assay: cell_activity; settings: Cel-1 efficiency of ZFN pair 31/32; no productive tag integration

## AGGAAGGATTCGCAC (double strand) [MAPRE3 half-site 2]
[1]
  activity: 21%

## TTCCTCTCTCTCCCAC (double strand) [MAPRE3 half-site 1]
[2]
  activity: 21%
